Measurements reported in PMC12828721.

Tests used:
human CD64 (FcγRI) = human CD64 (FcγRI) (UniProt P12314); assay: ELISA; conditions: highest concentration point (about 500 nM); parent: est. 3.4; read off a plot
murine CD64 (FcγRI) = murine CD64 (FcγRI) (UniProt P26151); assay: ELISA; conditions: highest concentration point (about 1e4 nM); parent: est. 1.2; read off a plot
MSLN = assay: BLI (Blitz); conditions: 800nM trace, read at end of association (about 120 s); parent: est. 0.63; read off a plot

Sequence of UniProt P12314 (P12314 16-374): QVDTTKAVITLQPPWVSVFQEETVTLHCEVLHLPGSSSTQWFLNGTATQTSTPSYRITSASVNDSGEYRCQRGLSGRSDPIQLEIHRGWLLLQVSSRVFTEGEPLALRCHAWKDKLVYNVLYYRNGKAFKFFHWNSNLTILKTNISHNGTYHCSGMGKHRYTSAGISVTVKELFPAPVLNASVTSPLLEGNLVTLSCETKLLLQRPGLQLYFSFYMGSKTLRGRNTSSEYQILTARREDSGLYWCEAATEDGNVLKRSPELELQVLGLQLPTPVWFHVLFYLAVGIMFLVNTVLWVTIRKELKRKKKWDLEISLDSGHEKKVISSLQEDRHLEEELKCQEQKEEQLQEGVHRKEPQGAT
Sequence of UniProt P26151 (P26151 25-404): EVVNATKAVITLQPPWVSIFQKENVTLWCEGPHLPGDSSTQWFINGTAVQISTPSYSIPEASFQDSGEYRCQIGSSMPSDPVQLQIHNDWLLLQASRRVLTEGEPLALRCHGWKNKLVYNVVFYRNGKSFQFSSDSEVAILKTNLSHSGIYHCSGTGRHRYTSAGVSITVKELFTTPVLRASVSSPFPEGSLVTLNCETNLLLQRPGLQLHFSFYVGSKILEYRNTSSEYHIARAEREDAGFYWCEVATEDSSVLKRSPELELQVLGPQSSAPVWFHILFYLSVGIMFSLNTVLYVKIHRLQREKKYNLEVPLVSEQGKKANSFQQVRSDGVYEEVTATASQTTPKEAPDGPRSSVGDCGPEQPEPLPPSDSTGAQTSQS

response (human CD64 (FcγRI)) [OD450] | response (murine CD64 (FcγRI)) [OD450] | response (MSLN) [nm] | Substance
0.22 | 0.25 | 0.78 | 2A10-VH-FcWT (from UniProt P01857) L234A; L235A; P329G
0.27 | 0.3 | 0.78 | 2A10-VH-FcWT (from UniProt P01857) G236R; L328R
